Assay [1] deals with Aβ(1-42) fibrils (human). Nature of the assay: fibril pull-down: antibody incubated 20 h at 37 °C with Aβ(1-42) fibrils, centrifuged; SDS-PAGE densitometry of the heavy chain in pellet and supernatant.
Assay [2] concerns the target Aβ(1-42) globulomer (human). Nature of the assay: dot blot densitometry; reference: Aβ(1-40) monomer.
Assay [3] deals with Aβ(1-42) globulomer (human). Nature of the assay: dot blot densitometry; reference: Aβ(1-42) monomer.
In assay [4] the target is Aβ(1-40) monomer (human). Nature of the assay: dot blot, 10 pmol antigen on nitrocellulose, 0.2 µg/ml antibody, densitometry.
For assay [5], the target named is Aβ(1-42) globulomer (human). The assay is described as above.
Assay [6] has as its target Aβ(1-42) monomer, HFIP pretreated (human). The description is as above.

Chain of Aβ(1-42) globulomer (human) (peptide, as listed by the source): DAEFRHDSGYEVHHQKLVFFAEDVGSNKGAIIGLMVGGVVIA
Chain of Aβ(1-40) monomer (human) (peptide, as listed by the source): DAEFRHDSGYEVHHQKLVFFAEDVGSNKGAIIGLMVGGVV

In the case of unspecific antibody IgG2a, the Fibril bound Ab fraction in assay [1] stood at 9%.

On to mouse monoclonal antibody 4G8, for which, in assay [2], the Ratio RD Aβ(1-42) globulomer/RD Aβ(1-40) monomer was found to be 10. In assay [3], the Ratio RD Aβ(1-42) globulomer/RD Aβ(1-42) monomer came to 0.42. The Reflective Density (RD) [10 pmol] in assay [4] was determined as 0.15 RD; in assay [5], 1.5 RD; in assay [6], 3.5 RD.

In assay [1], “mMAb 6E10 (Signet Inc. Cat.#9320) (antibody)” had a Fibril bound Ab fraction of 91%.
